Laboratory results reported in paper PMC13031064.

B1: DXS2 probe (dsDNA)
DNA 1: TAAATCCTGACATTTGAATAGTATATTAAATCCTGACATTTGAATAGTATAT
DNA 2: ATATACTATTCAAATGTCAGGATTTAATATACTATTCAAATGTCAGGATTTA
B2: CPS1 probe (dsDNA)
DNA 1: AATCATTTTTCATTTGACTGCCAAGGTAATCATTTTTCATTTGACTGCCAAGGT
DNA 2: ACCTTGGCAGTCAAATGAAAAATGATTACCTTGGCAGTCAAATGAAAAATGATT
B3: KSL1 probe (dsDNA)
DNA 1: TGCATCATCTCATTTGGAGTTTAAAATGCATCATCTCATTTGGAGTTTAAAA
DNA 2: TTTTAAACTCCAAATGAGATGATGCATTTTAAACTCCAAATGAGATGATGCA
B4: CYP76AH1 probe (dsDNA)
DNA 1: TATAATAGAACATTTGGGCGATGCTATATAATAGAACATTTGGGCGATGCTA
DNA 2: TAGCATCGCCCAAATGTTCTATTATATAGCATCGCCCAAATGTTCTATTATA

Target: bHLH130-His (SmbHLH130) (Salvia miltiorrhiza, UniProt A0A0H3Y8V8 1-394)
Assay: EMSA

Binder	binding result
B1	binds
B2	binds
B3	binds
B4	binds
